In patent US20110318757A1 (MAB FACTORY, published 2011):
Changes are numbered by the printed parent chain.

B1: R764-B7 (HT186-B7 IgG) (antibody, V domains shown)
VH: QMQLVQSGAEVKKPGASVKVSCKASGYTFTGHYMHWVRQAPGQGLEWMGWIDPVTGGTKYAQNFQGWVTMTRDTSIRTAYMELSRLRSDDTAMYYCAREVTGDRGQFDKWGQGTLVTVAS
VL: QSVLTQPPSVSVAPGKTARITCGGNNIGSKSVHWYQQKPGQAPALVIYYGSYRPSGIPERFSGSNYGNTATLTIRRVEAGDEADYYCQVWDSSSDWVFGGGTKLTVLG
notes: Human IgG1, lambda, produced in YB2/0 cells
B2: R764-D11 (HT186-D11 IgG) (antibody, V domains shown)
VH: B1 VH with G8E, V11L, T28S, M81L
VL: B1 VL with Y52N, Y66S, R75S
notes: Human IgG1, lambda, produced in YB2/0 cells; also called R764 HT186-D11
B3: R764-G2 (HT186-G2 IgG) (antibody, V domains shown)
VH: B1 VH with Q1R, V20L, T30A, Q43R
VL: B1 VL with A44V, Y52D, P54S, Y66S, R75S
notes: as for B1

Target: T1, MUC1 (surface cell bound, tumor associated MUC1) (human, UniProt P15941 24-1255, tumor-associated O-glycosylation)
T1 construct: whole, on cells; Endogenous MUC1 on tumor cell lines; also called CD227; CA-15-3
T1 sequence (P15941 24-1255): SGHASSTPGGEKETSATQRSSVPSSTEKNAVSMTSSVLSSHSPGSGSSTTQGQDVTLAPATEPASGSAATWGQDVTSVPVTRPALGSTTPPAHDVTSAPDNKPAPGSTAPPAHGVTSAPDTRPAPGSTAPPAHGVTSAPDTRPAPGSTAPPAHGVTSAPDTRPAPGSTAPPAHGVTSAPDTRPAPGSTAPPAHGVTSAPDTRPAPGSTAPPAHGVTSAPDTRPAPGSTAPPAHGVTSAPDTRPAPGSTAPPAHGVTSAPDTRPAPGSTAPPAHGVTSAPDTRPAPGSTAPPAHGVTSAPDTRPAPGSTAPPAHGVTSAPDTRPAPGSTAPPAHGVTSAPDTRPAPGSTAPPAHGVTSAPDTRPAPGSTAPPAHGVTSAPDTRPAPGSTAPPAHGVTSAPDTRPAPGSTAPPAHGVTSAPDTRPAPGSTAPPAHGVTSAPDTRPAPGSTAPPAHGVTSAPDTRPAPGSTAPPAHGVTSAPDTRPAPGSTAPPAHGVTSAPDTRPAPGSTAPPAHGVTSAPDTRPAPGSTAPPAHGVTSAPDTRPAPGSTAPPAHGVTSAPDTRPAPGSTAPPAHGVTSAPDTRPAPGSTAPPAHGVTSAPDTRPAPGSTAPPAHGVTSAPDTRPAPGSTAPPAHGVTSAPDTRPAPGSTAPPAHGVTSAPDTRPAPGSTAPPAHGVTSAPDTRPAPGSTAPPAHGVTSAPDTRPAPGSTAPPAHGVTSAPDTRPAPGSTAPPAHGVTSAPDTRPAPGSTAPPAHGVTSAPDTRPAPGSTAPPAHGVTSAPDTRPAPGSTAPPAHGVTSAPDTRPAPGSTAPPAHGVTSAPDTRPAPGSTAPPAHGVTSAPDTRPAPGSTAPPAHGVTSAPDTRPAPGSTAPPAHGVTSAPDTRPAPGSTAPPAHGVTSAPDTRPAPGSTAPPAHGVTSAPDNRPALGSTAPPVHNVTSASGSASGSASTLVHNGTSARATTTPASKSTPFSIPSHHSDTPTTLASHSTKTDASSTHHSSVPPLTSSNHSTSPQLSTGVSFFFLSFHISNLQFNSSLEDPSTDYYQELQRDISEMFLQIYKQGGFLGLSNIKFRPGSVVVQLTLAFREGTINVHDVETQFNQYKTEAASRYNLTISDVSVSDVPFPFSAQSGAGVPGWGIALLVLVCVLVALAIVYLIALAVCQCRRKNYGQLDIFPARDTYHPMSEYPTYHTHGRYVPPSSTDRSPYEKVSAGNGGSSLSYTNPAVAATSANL
Experiment: FACS on T47D cells, antibody at 10.0000 µg/ml
Procedure: (§1) From these antibody solutions further dilution by a factor of 3.162 were made (in a PP microtiter plate), so following antibody concentrations were used for FACS (μg/mL): 100, 31.62 10; 3.16; 1; 0.316; 0.1, 0.0316, 0.01, 0.003162
(§2) bound anti-MUC1 antibodies were detected by: goat anti-human IgG (H+L) Alexa488 conj. 1:200=10 μg/mL final (Invitrogen resp. Molecular probes Cat.No. A-11013) in 100 μL FACS buffer in total: 38.5 μL (stock: 2 mg/mL) were given to 7661.5 μL FACS buffer
(§3) The measurement was performed on a Beckman Coulter Cytomics FC500. Gates were set by analyzing a mock-control of each cell line w/o any antibody incubation. Specific protocol files (.pro) were saved.

Question: B1 was tested. Which MFI did it give?
Answer: 6.56

Question: For B2, which MFI is on record?
Answer: 11.1

Question: For B3, which MFI is on record?
Answer: 1.99

Target: T1, MUC1 (surface cell bound, tumor …)
Experiment: FACS on T47D cells, antibody at 0.0032 µg/ml
Procedure: as §1, §2, §3

Question: With B1 as the binder, how does the MFI read?
Answer: 0.738

Question: Which MFI does the source give for B2 here?
Answer: 1.17

Question: With B3 as the binder, how does the MFI read?
Answer: 0.706

Target: T1, MUC1 (surface cell bound, tumor …)
Experiment: FACS on T47D cells, antibody at 100.0000 µg/ml
Procedure: as §1, §2, §3

Question: How did the MFI turn out when B1 was run?
Answer: 12.6

Question: B2 was tested. Which MFI did it give?
Answer: 17.4

Question: B3 was tested. Which MFI did it give?
Answer: 6.15

Target: T1, MUC1 (surface cell bound, tumor …)
Experiment: FACS on T47D cells, antibody at 3.1623 µg/ml
Procedure: as §1, §2, §3

Question: How did the MFI turn out when B1 was run?
Answer: 4.96

Question: B2 was tested. Which MFI did it give?
Answer: 7.92

Question: Which MFI does the source give for B3 here?
Answer: 0.802

Target: T1, MUC1 (surface cell bound, tumor …)
Experiment: FACS on T47D cells, antibody at 0.0100 µg/ml
Procedure: as §1, §2, §3

Question: How did the MFI turn out when B1 was run?
Answer: 1.11

Question: Which MFI does the source give for B2 here?
Answer: 1.09

Question: How did the MFI turn out when B3 was run?
Answer: 0.767

Target: T1, MUC1 (surface cell bound, tumor …)
Experiment: FACS on T47D cells, antibody at 0.0316 µg/ml
Procedure: as §1, §2, §3

Question: With B1 as the binder, how does the MFI read?
Answer: 1.04

Question: How did the MFI turn out when B2 was run?
Answer: 1.13

Question: Which MFI does the source give for B3 here?
Answer: 1.04

Target: T1, MUC1 (surface cell bound, tumor …)
Experiment: FACS on T47D cells, antibody at 0.1000 µg/ml
Procedure: as §1, §2, §3

Question: For B1, which MFI is on record?
Answer: 0.728

Question: Which MFI does the source give for B2 here?
Answer: 1.45

Question: How did the MFI turn out when B3 was run?
Answer: 0.664

Target: T1, MUC1 (surface cell bound, tumor …)
Experiment: FACS on T47D cells, antibody at 1.0000 µg/ml
Procedure: as §1, §2, §3

Question: For B1, which MFI is on record?
Answer: 2.26

Question: With B2 as the binder, how does the MFI read?
Answer: 4.72

Question: Which MFI does the source give for B3 here?
Answer: 0.605

Target: T1, MUC1 (surface cell bound, tumor …)
Experiment: FACS on T47D cells, antibody at 0.3162 µg/ml
Procedure: as §1, §2, §3

Question: How did the MFI turn out when B1 was run?
Answer: 1.44

Question: B2 was tested. Which MFI did it give?
Answer: 1.96

Question: Which MFI does the source give for B3 here?
Answer: 0.515

Target: T1, MUC1 (surface cell bound, tumor …)
Experiment: FACS on T47D cells, antibody at 31.6228 µg/ml
Procedure: as §1, §2, §3

Question: With B1 as the binder, how does the MFI read?
Answer: 9.16

Question: For B2, which MFI is on record?
Answer: 13.2

Question: Which MFI does the source give for B3 here?
Answer: 3.68
